In patent publication US10370443B2, “Method of treating autoimmune disease by administering antibodies to interleukin-6” (Fountain Biopharma Inc., priority 2012, dated 2019):
Substitutions are numbered along the chain they refer to. “Also recorded” adds a separate entry of the source.

B1: 1-4-62: parent fully-human anti-IL6 antibody clone; HC CDR3 SEQ ID NO: 6, LC CDR3 SEQ ID NO: 13 (antibody, V domains shown)
VH: EVQLVESGPALVKPTQTLTLTCTFSGFSLSTGGMSVSWIRQPPGKALEWLARIDWDDDKFYTPSLKTRLTISRDTSKNQVVLIMTNMDPVDTATYYCARMHIDDSNGYYSDAFHIWGQGTMVTVSS
VL: EIVLTQSPATLSVSPGERVTLSCRDSQSVSSTSLAWYQQKSGQAPRLLIYDTSNRATGIPARFSGGGSGTDFTLTISSLEPEDFAVYYCLVRNNWPPRFTFGQGTKVEIK
B2: HAg1T-3-10: affinity-matured fully-human anti-IL6 antibody; HC CDR3 SEQ ID NO: 16, LC CDR3 SEQ ID NO: 15 (antibody, V domains shown)
VH: B1 VH with Y109F
VL: B1 VL with L90S, V91F, R92V, N93S, N94R, W95P, P96Y
B3: Ag1-4-6: affinity-matured fully-human anti-IL6 antibody; HC CDR3 SEQ ID NO: 6, LC CDR3 SEQ ID NO: 15 (antibody, V domains shown)
VH: B1 VH
VL: B1 VL with L90S, V91F, R92V, N93S, N94R, W95P, P96Y

Legend:
BxPC-3 tumor = experiment: Xenograft human pancreatic tumor model; assay type: in vivo, mice; conditions: BxPC-3 tumor sections, FIGS. 6E and 6F
Experimental: (iv) Xenograft Human Pancreatic Tumor Model Human pancreatic tumor cells BxPC-3 and MiaPaCa cells were re-suspended in PBS and injected subcutaneously (s.c.) (5×10^6 cells, total volume 0.15 mL) into the right flank of mice. […] Mice body weights and the tumor sizes were measured twice a week. Tumor sizes were measured using a caliper, and the tumor volume was calculated by […]. After the experiment, all mice were sacrificed, mice blood samples were collected and the tumor masses were removed and weighted. The differences in mean tumor volume and tumor weight were evaluated by Student's t-test. […] Results (i) FB704 Inhibits In Vivo Angiogenesis in a Matrigel Assay
FB704 enhanced the anti-tumor activity of Oxaliplatin or Gemcitabine in a human pancreatic cancer model.

[1] = test system: IL6-induced phosphorylated STAT3 in U266 cells; experiment: Cell signaling transduction assay (P-STAT3 western blot); assay type: cell-based, human; conditions: for STAT3 phosphorylation inhibition percentage of control: rhIL6; for suppression of phosphorylated-STAT3 signaling: western blot, FIG. 1A/1B
Experimental: U266 cells (1×10^6/ml) were washed twice with serum-free RPMI 1640 and cultured for 2 h in the absence of fetal bovine serum and growth factors. Cells were stimulated with rhIL6 (5 ng/ml) for 30 min at 37° C. and then treated with or without anti-IL6 antibodies. Cells were washed with ice-cold PBS, and then lysed in RIPA buffer (Thermo) supplemented with protease and phosphatase inhibitor (Roche). Western blot analysis was performed using anti-pSTAT3, and anti-STAT3 (Cell Signaling Technology) antibodies. After incubating with HRP-labeled goat anti-rabbit (Thermo) or HRP-labeled goat anti-mouse antibody (Thermo), the membranes were developed by enhanced chemiluminescence (GE Healthcare).
Human multiple myeloma U266 cells were used to examine the effect of anti-IL6 antibodies on IL6-induced signaling cascade. U266 cells were cultured in the presence or absent of antibodies, together with rhIL6. After 30 minutes, whole cell lysates were collected and western blot analysis was performed to examine phosphorylated STAT3 protein (P-STAT3), which is a major transcription factor involved in the IL6 signaling pathway. […] (FIGS. 1A and 1B).

[2] = test system: human prostate cancer PC-3 cell; experiment: Prostate PC3 tumor metastasis and cachexia, intrasplenic implantation model; conditions: for total body weights (cachexia): day 31 after PC-3 implantation, 20 mg/kg i.v. twice a week, P<0.01; for symptom-free survival of PC3 tumor-bearing mice: repetitive injections, Kaplan-Meier, FIG. 5B
Experimental: The body weights of those mice were measured twice a week.
All mice were then euthanized by CO2 asphyxiation and body weights were determined. Primary tumors in the spleen and liver were excised, photographed, and weighed. Organ index was expressed as milligram organ per gram mouse. Mean+SD were calculated using Student's t-test. The survival assay was used Kaplan-Meier analysis. Paraffin-embedded or frozen section of tumor masses were prepared and stained by anti-CD31 and Ki-67 plus Hematoxylin staining for analysis.
To verify the efficacy of FB704 on cancer induced cachexia and metastasis, mice were implanted with human prostate cancer PC-3 cell (1.0×10^6 per mouse) by intrasplenic injection. On day 1, the mice were randomized into 4 groups (n=12-15). High (20 mg/kg) and low (5 mg/kg) dose of FB704, positive control Actemra (20 mg/kg) and PBS were administered via i.v. (intravenous) injection twice a week.

recombinant human IL6 = molecular target: T1, recombinant human IL6 (Homo sapiens, UniProt P05231); experiment: BIAcore analysis of IgG binding affinity; conditions: for Ka: association rate constant, captured IgG, BIAcore T200; for Kd: dissociation rate constant
T1 construct: purchased R&D Systems
T1 sequence (P05231 30-212): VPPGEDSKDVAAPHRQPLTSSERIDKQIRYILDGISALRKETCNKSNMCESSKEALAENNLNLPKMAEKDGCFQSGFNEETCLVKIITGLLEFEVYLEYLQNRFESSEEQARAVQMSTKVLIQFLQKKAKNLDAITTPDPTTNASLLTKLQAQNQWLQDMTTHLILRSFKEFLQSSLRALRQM
Experimental: IgG binding affinity was measured by using human antibody capture kit (GE healthcare) in BIAcore T200 system (GE healthcare). The mouse anti-human IgG was immobilized on a CMS sensor chip via amine coupling. Approximately 700 RU of purified anti-IL6 IgG in HBS-EP+ buffer were captured onto the immobilized surface. The recombinant human IL6 (R&D Systems) at concentrations ranging from 25.6 nM to 0.4 nM in HBS-EP+ buffer was injected for 2 minutes using a flow rate of 30 μl/min. Dissociation of bound antigen in HBS^−EP^+ buffer flow was followed for 7 minutes. The surfaces IgG were regenerated after each cycle using regeneration solution (3M MgCl2). The dissociation constant (KD) was calculated as kd/ka.

[3] = test system: IL6 plus sIL6R induced MCP-1 and sICAM-1 in HUVECs; experiment: MCP-1 and sICAM-1 production in HUVEC cells (ELISA); assay type: cell-based, human; conditions: 24 h; for inhibition of IL6+sIL6R induced MCP-1 secretion: FIG. 2A; for inhibition of sICAM-1 production: FIG. 2B
Experimental: To examine the effectiveness of the anti-IL6 antibodies described herein in treating rheumatoid arthritis (RA), monocyte chemotactic protein-1 (MCP-1) and sICAM-1 secretion by Human Umbilical Vein Endothelial Cells (HUVECs) were measured after antibody treatment as follows. The HUVEC cells were plated in a 48-well plate at a density of 2×10^5 cells/ml. The cells were treated with a combination of recombinant human IL6, IL6 receptor-α (R&D systems) with or without anti-IL6 antibodies at various concentrations or the control IgG antibody at 37° C. for 24 h. Cell free culture supernatants were collected and analysis for MCP-1 and sICAM-1 by ELISA (RayBiotech)

[4] = test system: IL6-induced MCP-1 in PBMC cells; experiment: MCP-1 production in human PBMC; assay type: cell-based; conditions: PBMC of five healthy donors, IL6 100 ng/ml, 24 h, FIG. 7B
Experimental: Further, PBMCs were isolated from five healthy donors. The cells (5×10^5 cells/250 μl/well) were cultured with IL6 (100 ng/ml) for 24 h in a 96-well U-bottomed culture plates (Corning, Corning, N.Y.) containing RPMI1640 in the presence of anti-IL6 antibodies at different concentrations. The levels of MCP-1 in the supernatant were measured by MCP-1 ELISA kits (e Bioscience).

[5] = test system: hIL6-induced angiogenesis; experiment: Matrigel angiogenesis assay; assay type: in vivo, mice; conditions: listed as FB704
Experimental: Liquid matrigel (BD Biosciences) was maintained at 4° C. hIL6 recombinant protein (R&D Systems) was added to Matrigel to a final concentration of 100 ng/0.5 ml. […] Then, the mice were treated with anti-IL6 IgG antibodies or a control IgG antibody through intravenous injection. On day 6, the mice were euthanized by CO2 asphyxiation. Matrigel plugs were removed, weighed and photographed. To measure hemoglobin levels, the Matrigel plug was lysed with a lysis buffer (1% SDS, 0.5% Triton in PBS) overnight at 4° C. The hemoglobin contents of the plugs were quantitated using Drabkin's reagent (Sigma). The concentrations of hemoglobin in the plugs were determined using a standard curve of bovine hemoglobin (Sigma). Hemoglobin contents were indicated as micrograms hemoglobin per gram Matrigel. Mean+SD were calculated using the Student's unpaired t test; p<0.05 was considered as statistically significant.
The anti-angiogenic ability of FB704 was examined in an in vivo matrigel model as described herein. Six days after the treatment, the mice were scarified mice and hemoglobin concentrations were measured. […] (FIG. 4B).

[6] = test system: human IL6 and other cytokines (IL6 family and non-IL6 family); experiment: Specificity analysis ELISA on coated cytokines; assay type: binding; conditions: FIGS. 3A and 3B
Experimental: Plates were coated with recombinant human IL3, IL4, IL5, IL6, IL11, IL17A, CNTF, OSM, IGF-1 (R&D Systems), IL2, FGF (Prospec), VEGF, TNF-α, EGF (Peprotech) at 2 μg/ml in 0.1M NaHCO3 buffer at 4° C. overnight. After being washed by PBS, the wells were blocked with 1% (w/v) BSA in PBS at RT for 1 h. Purified anti-IL6 antibodies in four-fold serial dilutions at a starting concentration of 2 μg/ml were placed into the wells and incubated at RT for 1 h. The plate was washed in PBS containing 0.1% (w/v) Tween 20 and then probed with HRP-labeled goat anti-human IgG (KPL) diluted 1:10,000 in 1% BSA-PBS for 40 min at RT. The plate was again washed and a TMB substrate solution was added to develop color. Stop solution (1M H2SO4) was then added and the absorption at 450 nm quantitated using VERSA max (Molecular Devices).
An ELISA assay as described herein was performed to confirm the binding specificity of high-affinity anti-IL6 antibodies described herein. Briefly, plates were coated with different cytokines as indicated in FIG. 3A (IL6 family cytokines) and FIG. 3B (non-IL6 family cytokines) and the binding activities of the FB704 antibody clone (i.e. Ag1-4-6) to those cytokines were examined.

Row | Molecule | Ki-67 positive cell rate (BxPC-3 tumor) | total body weights (cachexia) [2] | dissociation rate constants (kd) (recombinant human IL6) | Ka (recombinant human IL6) | Kd (recombinant human IL6) | suppression of phosphorylated-STAT3 signaling [1] | inhibition of IL6+sIL6R induced MCP-1 secretion [3] | inhibition of sICAM-1 production [3] | suppression of MCP-1 production [4] | also measured
1 | O=C1[O][Pt]2([NH][C@@H]3CCCC[C@H]3[NH]2)[O]C1=O [Oxaliplatin, reference compound] | 14% | – | – | – | – | – | – | – | – | –
2 | Actemra: anti-IL6 receptor humanized antibody, FDA-approved for rheumatoid arthritis, used as a control [reference compound] | – | remained stable | – | – | – | – | – | – | – | STAT3 phosphorylation inhibition percentage of control ([1]; Ab concentration 0.05 μg/ml): 0%; STAT3 phosphorylation inhibition percentage of control ([1]; Ab concentration 0.5 μg/ml): 17%; symptom-free survival of PC3 tumor-bearing mice [2]: significantly prolonged symptom-free survival
3 | B1 | – | – | 0.00166 s⁻¹ | 438000 M⁻¹ s⁻¹ | 0.00166 s⁻¹ | – | – | – | – | –
4 | B2 | – | – | 0.0006 s⁻¹ | 2.24e+06 M⁻¹ s⁻¹ | 0.0006 s⁻¹ | at a level greater than Actemra | in a dose dependent manner | in a dose dependent manner | inhibited MCP-1 production in a dose dependent manner | suppression of phosphorylated-STAT3 signaling ([1]; listed as HAgT1-3-10): suppressed the STAT3 signaling at a much greater level as compared to control antibody Actemra; inhibition of IL6+sIL6R induced MCP-1 secretion ([3]; listed as Hag1T-3-10): inhibited; inhibition of sICAM-1 production ([3]; listed as Hag1T-3-10): at a level greater than Actemra
5 | B3 | 16% | remained stable | – | 1.61e+06 M⁻¹ s⁻¹ | 0.00121 s⁻¹ | at a level greater than Actemra; also recorded: suppressed the STAT3 signaling at a much greater level as compared to control antibody Actemra | in a dose dependent manner; also recorded: inhibited | in a dose dependent manner; also recorded: at a level greater than Actemra | inhibited MCP-1 production in a dose dependent manner | inhibition of IL6-induced angiogenesis in matrigel plugs ([5]; 6 days after treatment, FIG. 4A): observable difference in color and vessel density; also recorded: inhibited angiogenesis; hemoglobin concentrations in matrigel plugs ([5]; day 6, compared with hIL6, FIG. 4B): significantly reduced the hemoglobin concentrations; also recorded: significantly changed the hemoglobin concentrations; binding activity to coated cytokines (specificity) [6]: high binding activity to human IL6 protein but not to other cytokines; tumor cell infiltration in liver ([2]; gross necropsy, FIG. 5C): moderate tumor cell infiltration; vessel density / CD31 staining on tumor sections ([2]; immunohistochemistry, vs PBS, FIGS. 5D and 5E): significantly decreased; symptom-free survival of PC3 tumor-bearing mice ([2]; listed as FB704): significantly prolonged symptom-free survival; also recorded: significantly better efficacy than Actemra; also recorded: significant better efficacy than Actemra
